From PMC11269473, “Monoamine oxidase inhibition properties of 2,1-benzisoxazole derivatives” (Molecular Diversity, 2023)

Key:
[1] = substrate: NCCC(=O)c1ccccc1N; test: Lineweaver–Burk plots / mode of MAO-B inhibition and Ki; type: biochemical, human; conditions: other: global (shared) fitting of the kinetic data; pH 7.4; 37.0 °C
Description: (§1) These two compounds represent potent MAO inhibitors among the study compounds. […] Each line of the Lineweaver–Burk plots was constructed with the kynuramine concentration ranging from 15 to 250 μM.
(§2) The insets are replots of the slopes of the Lineweaver–Burk plots versus inhibitor concentration. The Ki value equals the negative of the x-axis intercept when y = 0
(§3) IC50 values for the inhibition of MAO were measured as described previously. Microsomes from insect cells containing recombinant human MAO-A and MAO-B (5 mg protein/mL) served as enzyme sources (Sigma-Aldrich) while kynuramine was used as non-specific MAO substrate. The enzyme reactions (200 µL reactions prepared in 96-well microtiter plates) contained phosphate buffer (100 mM, pH 7.4), 50 µM kynuramine and the test inhibitors at concentrations of 0.003–100 µM. Stock solutions of the test inhibitors were dissolved in DMSO and added to the enzyme reactions to give a final DMSO concentration of 4% (v/v). […] The concentration of 4-hydroxyquinoline, the product of kynuramine oxidation by MAO, was measured by fluorescence spectrophotometry (λex = 310 nm; λem = 400 nm). […] IC50 values were estimated in triplicate determinations from these plots and are expressed as mean ± standard deviation (SD). […]

[2] = substrate: NCCC(=O)c1ccccc1N; test: Lineweaver–Burk plots / mode of MAO-A inhibition and Ki; type: biochemical, human; conditions: other: global (shared) fitting of the kinetic data; pH 7.4; 37.0 °C
Description: as §1, §2, §3

Row | Protein | Km [1] [µM] | Vmax [1] [nmol/min.mg protein] | Km [2] [µM] | Vmax [2] [nmol/min.mg protein]
1 | recombinant human MAO-B (Homo sapiens) (protein, purchased Sigma-Aldrich; host or cells: insect cells (microsomes)) MSNKCDVVVVGGGISGMAAAKLLHDSGLNVVVLEARDRVGGRTYTLRNQKVKYVDLGGSYVGPTQNRILRLAKELGLETYKVNEVERLIHHVKGKSYPFRGPFPPVWNPITYLDHNNFWRTMDDMGREIPSDAPWKAPLAEEWDNMTMKELLDKLCWTESAKQLATLFVNLCVTAETHEVSALWFLWYVKQCGGTTRIISTTNGGQERKFVGGSGQVSERIMDLLGDRVKLERPVIYIDQTRENVLVETLNHEMYEAKYVISAIPPTLGMKIHFNPPLPMMRNQMITRVPLGSVIKCIVYYKEPFWRKKDYCGTMIIDGEEAPVAYTLDDTKPEGNYAAIMGFILAHKARKLARLTKEERLKKLCELYAKVLGSLEALEPVHYEEKNWCEEQYSGGCYTTYFPPGILTQYGRVLRQPVDRIYFAGTETATHWSGYMEGAVEAGERAAREILHAMGKIPEDEIWQSEPESVDVPAQPITTTFLERHLPSVPGLLRLIGLTTIFSATALGFLAHKRGLLVRV | 32.4 ± 3.73 | 8.39 ± 0.28 |  | 
2 | recombinant human MAO-A (Homo sapiens) (protein, purchased Sigma-Aldrich; host or cells: insect cells (microsomes)) MENQEKASIAGHMFDVVVIGGGISGLSAAKLLTEYGVSVLVLEARDRVGGRTYTIRNEHVDYVDVGGAYVGPTQNRILRLSKELGIETYKVNVSERLVQYVKGKTYPFRGAFPPVWNPIAYLDYNNLWRTIDNMGKEIPTDAPWEAQHADKWDKMTMKELIDKICWTKTARRFAYLFVNINVTSEPHEVSALWFLWYVKQCGGTTRIFSVTNGGQERKFVGGSGQVSERIMDLLGDQVKLNHPVTHVDQSSDNIIIETLNHEHYECKYVINAIPPTLTAKIHFRPELPAERNQLIQRLPMGAVIKCMMYYKEAFWKKKDYCGCMIIEDEDAPISITLDDTKPDGSLPAIMGFILARKADRLAKLHKEIRKKKICELYAKVLGSQEALHPVHYEEKNWCEEQYSGGCYTAYFPPGIMTQYGRVIRQPVGRIFFAGTETATKWSGYMEGAVEAGERAAREVLNGLGKVTEKDIWVQEPESKDVPAVEITHTFWERNLPSVSGLLKIIGFSTSVTALGFVLYKYKLLPRS |  |  | 49.8 ± 3.07 | 34.0 ± 0.80
